Laboratory results: article PMC2756588

T1: Lsb3, P43603
T1 sequence (P43603 385-451, looked up): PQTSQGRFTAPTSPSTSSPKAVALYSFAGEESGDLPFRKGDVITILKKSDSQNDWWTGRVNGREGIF

T2: Sla1-3, P32790
T2 sequence (P32790 344-424, looked up): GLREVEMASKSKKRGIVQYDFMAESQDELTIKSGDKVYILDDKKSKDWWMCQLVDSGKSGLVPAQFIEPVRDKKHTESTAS

T3: Hse1, P38753
T3 sequence (P38753 208-285, looked up): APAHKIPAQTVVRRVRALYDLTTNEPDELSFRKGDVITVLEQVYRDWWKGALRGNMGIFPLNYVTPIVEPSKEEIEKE

T4: Hof1, Q05080
T4 sequence (Q05080 590-669, looked up): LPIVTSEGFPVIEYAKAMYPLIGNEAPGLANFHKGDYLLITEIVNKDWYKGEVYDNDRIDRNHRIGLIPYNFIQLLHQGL

T5: Pex13, P80667
T5 sequence (P80667 295-386, looked up): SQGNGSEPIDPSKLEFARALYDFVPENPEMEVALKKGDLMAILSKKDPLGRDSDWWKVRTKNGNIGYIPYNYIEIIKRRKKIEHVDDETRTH

T6: Sla1-2, P32790
T6 sequence (P32790 60-140, looked up): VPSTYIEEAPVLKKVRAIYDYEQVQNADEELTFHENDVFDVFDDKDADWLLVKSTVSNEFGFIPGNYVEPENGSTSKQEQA

T7: Lsb4, P32793
T7 sequence (P32793 402-468, looked up): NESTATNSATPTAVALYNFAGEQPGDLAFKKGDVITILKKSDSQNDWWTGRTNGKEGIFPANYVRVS

T8: Bzz1-2, P38822
T8 sequence (P38822 568-633, looked up): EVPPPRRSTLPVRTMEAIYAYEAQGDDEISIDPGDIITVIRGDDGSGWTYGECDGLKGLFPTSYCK

T9: Boi2, P39969
T9 sequence (P39969 32-116, looked up): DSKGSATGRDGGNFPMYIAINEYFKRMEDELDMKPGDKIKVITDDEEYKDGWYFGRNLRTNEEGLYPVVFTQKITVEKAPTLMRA

T10: Fus1, P11710
T10 sequence (P11710 432-512, looked up): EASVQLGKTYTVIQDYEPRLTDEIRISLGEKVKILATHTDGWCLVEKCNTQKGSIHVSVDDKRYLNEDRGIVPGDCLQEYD

T11: Pin3, Q06449
T11 sequence (Q06449 53-122, looked up): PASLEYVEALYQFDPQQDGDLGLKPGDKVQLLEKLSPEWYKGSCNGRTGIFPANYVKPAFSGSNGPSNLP

T12: Nbp2, Q12163
T12 sequence (Q12163 103-180, looked up): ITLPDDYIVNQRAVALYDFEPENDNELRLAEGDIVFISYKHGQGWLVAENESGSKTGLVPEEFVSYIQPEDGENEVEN

T13: Bud14, P27637
T13 sequence (P27637 247-328, looked up): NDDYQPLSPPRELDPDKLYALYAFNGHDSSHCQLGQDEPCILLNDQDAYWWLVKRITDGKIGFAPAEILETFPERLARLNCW

T14: Bbc1, P47068
T14 sequence (P47068 1-78, looked up): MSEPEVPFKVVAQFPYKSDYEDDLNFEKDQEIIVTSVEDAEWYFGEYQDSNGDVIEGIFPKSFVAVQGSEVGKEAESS

T15: Abp1, P15891
T15 sequence (P15891 535-592, looked up): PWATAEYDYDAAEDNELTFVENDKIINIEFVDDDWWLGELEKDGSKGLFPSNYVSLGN

T16: Cdc25, P04821
T16 sequence (P04821 50-136, looked up): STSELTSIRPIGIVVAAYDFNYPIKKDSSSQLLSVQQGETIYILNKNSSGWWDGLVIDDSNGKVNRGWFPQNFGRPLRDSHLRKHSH

T17: Myo5, Q04439
T17 sequence (Q04439 1072-1160, looked up): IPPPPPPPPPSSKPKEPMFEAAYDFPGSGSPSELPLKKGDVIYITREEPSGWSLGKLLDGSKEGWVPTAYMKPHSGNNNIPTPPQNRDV

T18: Bzz1-1, P38822
T18 sequence (P38822 478-572, looked up): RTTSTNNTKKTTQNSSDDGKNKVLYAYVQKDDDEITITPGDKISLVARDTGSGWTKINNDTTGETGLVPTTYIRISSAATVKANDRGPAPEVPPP

T19: Lsb1, P53281
T19 sequence (P53281 45-122, looked up): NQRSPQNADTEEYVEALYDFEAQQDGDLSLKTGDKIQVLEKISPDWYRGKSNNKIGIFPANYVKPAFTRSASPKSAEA

T20: Boi1, P38041
T20 sequence (P38041 1-86, looked up): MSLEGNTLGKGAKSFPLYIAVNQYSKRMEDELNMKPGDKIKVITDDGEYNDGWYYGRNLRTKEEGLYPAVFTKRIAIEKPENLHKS

T21: Cyk3, Q07533
T21 sequence (Q07533 1-83, looked up): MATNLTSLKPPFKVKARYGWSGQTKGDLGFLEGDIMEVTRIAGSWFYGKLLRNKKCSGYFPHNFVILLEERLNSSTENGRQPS


molecular target: T1, Lsb3, P43603; test: SPOT array; conditions: median of control spots 406

| SPOT intensity | Binder |
| --- | --- |
| 2 | IVNKPLPPLPVAGSS |
| 877 | AATTSTPPLPRRRAT |
| 0 | RRSKSLPITPKSIFN |

molecular target: T2, Sla1-3, P32790; test: SPOT array; conditions: median of control spots 5475

| SPOT intensity | Binder |
| --- | --- |
| 0 | IVNKPLPPLPVAGSS |
| 0 | AATTSTPPLPRRRAT |
| 21 | RRSKSLPITPKSIFN |

molecular target: T3, Hse1, P38753; test: SPOT array; conditions: median of control spots 1727

| SPOT intensity | Binder |
| --- | --- |
| 59 | IVNKPLPPLPVAGSS |
| 2 | AATTSTPPLPRRRAT |
| 0 | RRSKSLPITPKSIFN |

molecular target: T4, Hof1, Q05080; test: SPOT array; conditions: median of control spots 4086

| SPOT intensity | Binder |
| --- | --- |
| 1440 | IVNKPLPPLPVAGSS |
| 5 | AATTSTPPLPRRRAT |
| 0 | RRSKSLPITPKSIFN |

molecular target: Bem1-2, P29366; test: SPOT array; conditions: median of control spots 4347
Sequence (P29366 139-227): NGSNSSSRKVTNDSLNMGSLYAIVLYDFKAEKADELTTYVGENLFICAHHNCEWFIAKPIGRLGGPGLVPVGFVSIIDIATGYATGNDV

| SPOT intensity | Binder |
| --- | --- |
| 0 | IVNKPLPPLPVAGSS |
| 0 | AATTSTPPLPRRRAT |
| 0 | RRSKSLPITPKSIFN |

molecular target: T5, Pex13, P80667; test: SPOT array; conditions: median of control spots 1341

| SPOT intensity | Binder |
| --- | --- |
| 688 | IVNKPLPPLPVAGSS |
| 364 | AATTSTPPLPRRRAT |
| 8 | RRSKSLPITPKSIFN |

molecular target: T6, Sla1-2, P32790; test: SPOT array; conditions: median of control spots 712

| SPOT intensity | Binder |
| --- | --- |
| 0 | IVNKPLPPLPVAGSS |
| 0 | AATTSTPPLPRRRAT |
| 1 | RRSKSLPITPKSIFN |

molecular target: T7, Lsb4, P32793; test: SPOT array; conditions: median of control spots 397

| SPOT intensity | Binder |
| --- | --- |
| 0 | IVNKPLPPLPVAGSS |
| 1360 | AATTSTPPLPRRRAT |
| 0 | RRSKSLPITPKSIFN |

molecular target: T8, Bzz1-2, P38822; test: SPOT array; conditions: median of control spots 4538

| SPOT intensity | Binder |
| --- | --- |
| 2 | IVNKPLPPLPVAGSS |
| 0 | AATTSTPPLPRRRAT |
| 0 | RRSKSLPITPKSIFN |

molecular target: T9, Boi2, P39969; test: SPOT array; conditions: median of control spots 1161

| SPOT intensity | Binder |
| --- | --- |
| 0 | IVNKPLPPLPVAGSS |
| 2 | AATTSTPPLPRRRAT |
| 0 | RRSKSLPITPKSIFN |

molecular target: Sho1, P40073; test: SPOT array; conditions: median of control spots 1148
Sequence (P40073 287-367): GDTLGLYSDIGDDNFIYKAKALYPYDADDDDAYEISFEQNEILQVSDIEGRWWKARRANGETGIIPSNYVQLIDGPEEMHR

| SPOT intensity | Binder |
| --- | --- |
| 2240 | IVNKPLPPLPVAGSS |
| 38 | AATTSTPPLPRRRAT |
| 1070 | RRSKSLPITPKSIFN |

molecular target: T10, Fus1, P11710; test: SPOT array; conditions: median of control spots 1200

| SPOT intensity | Binder |
| --- | --- |
| 0 | IVNKPLPPLPVAGSS |
| 0 | AATTSTPPLPRRRAT |
| 26 | RRSKSLPITPKSIFN |

molecular target: T11, Pin3, Q06449; test: SPOT array; conditions: median of control spots 2171

| SPOT intensity | Binder |
| --- | --- |
| 0 | IVNKPLPPLPVAGSS |
| 35 | AATTSTPPLPRRRAT |
| 4 | RRSKSLPITPKSIFN |

molecular target: T12, Nbp2, Q12163; test: SPOT array; conditions: median of control spots 357

| SPOT intensity | Binder |
| --- | --- |
| 0 | IVNKPLPPLPVAGSS |
| 0 | AATTSTPPLPRRRAT |
| 0 | RRSKSLPITPKSIFN |

molecular target: T13, Bud14, P27637; test: SPOT array; conditions: median of control spots 956

| SPOT intensity | Binder |
| --- | --- |
| 0 | IVNKPLPPLPVAGSS |
| 1 | AATTSTPPLPRRRAT |
| 10 | RRSKSLPITPKSIFN |

molecular target: T14, Bbc1, P47068; test: SPOT array; conditions: median of control spots 796

| SPOT intensity | Binder |
| --- | --- |
| 0 | IVNKPLPPLPVAGSS |
| 103 | AATTSTPPLPRRRAT |
| 15 | RRSKSLPITPKSIFN |

molecular target: GST; test: SPOT array; conditions: median of control spots 978

| SPOT intensity | Binder |
| --- | --- |
| 0 | IVNKPLPPLPVAGSS |
| 1 | AATTSTPPLPRRRAT |
| 2 | RRSKSLPITPKSIFN |

molecular target: T15, Abp1, P15891; test: SPOT array; conditions: median of control spots 935

| SPOT intensity | Binder |
| --- | --- |
| 301 | IVNKPLPPLPVAGSS |
| 109 | AATTSTPPLPRRRAT |
| 117 | RRSKSLPITPKSIFN |

molecular target: T16, Cdc25, P04821; test: SPOT array; conditions: median of control spots 969

| SPOT intensity | Binder |
| --- | --- |
| 0 | IVNKPLPPLPVAGSS |
| 4 | AATTSTPPLPRRRAT |
| 15 | RRSKSLPITPKSIFN |

molecular target: Myo3, P36006; test: SPOT array; conditions: median of control spots 468

| SPOT intensity | Binder |
| --- | --- |
| 0 | IVNKPLPPLPVAGSS |
| 31 | AATTSTPPLPRRRAT |
| 0 | RRSKSLPITPKSIFN |

molecular target: T17, Myo5, Q04439; test: SPOT array; conditions: median of control spots 471

| SPOT intensity | Binder |
| --- | --- |
| 0 | IVNKPLPPLPVAGSS |
| 0 | AATTSTPPLPRRRAT |
| 0 | RRSKSLPITPKSIFN |

molecular target: T18, Bzz1-1, P38822; test: SPOT array; conditions: median of control spots 4446

| SPOT intensity | Binder |
| --- | --- |
| 0 | IVNKPLPPLPVAGSS |
| 0 | AATTSTPPLPRRRAT |
| 0 | RRSKSLPITPKSIFN |

molecular target: T19, Lsb1, P53281; test: SPOT array; conditions: median of control spots 388

| SPOT intensity | Binder |
| --- | --- |
| 0 | IVNKPLPPLPVAGSS |
| 243 | AATTSTPPLPRRRAT |
| 0 | RRSKSLPITPKSIFN |

molecular target: Bem1-1, P29366; test: SPOT array; conditions: median of control spots 4282
Sequence (P29366 55-141): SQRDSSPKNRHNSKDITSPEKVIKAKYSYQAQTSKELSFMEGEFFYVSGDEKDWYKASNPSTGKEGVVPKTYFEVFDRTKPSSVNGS

| SPOT intensity | Binder |
| --- | --- |
| 0 | IVNKPLPPLPVAGSS |
| 0 | AATTSTPPLPRRRAT |
| 0 | RRSKSLPITPKSIFN |

molecular target: T20, Boi1, P38041; test: SPOT array; conditions: median of control spots 1162

| SPOT intensity | Binder |
| --- | --- |
| 1 | IVNKPLPPLPVAGSS |
| 0 | AATTSTPPLPRRRAT |
| 0 | RRSKSLPITPKSIFN |

molecular target: Rvs167, P39743; test: SPOT array; conditions: median of control spots 2707
Sequence (P39743 419-482): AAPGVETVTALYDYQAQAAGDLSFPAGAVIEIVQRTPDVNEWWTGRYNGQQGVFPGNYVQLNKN

| SPOT intensity | Binder |
| --- | --- |
| 0 | IVNKPLPPLPVAGSS |
| 2280 | AATTSTPPLPRRRAT |
| 0 | RRSKSLPITPKSIFN |

molecular target: T21, Cyk3, Q07533; test: SPOT array; conditions: median of control spots 1451

| SPOT intensity | Binder |
| --- | --- |
| 0 | IVNKPLPPLPVAGSS |
| 1 | AATTSTPPLPRRRAT |
| 0 | RRSKSLPITPKSIFN |
